Test results reported in US20050032696A1.

Molecular target: MEF2C (pcDNAMEF2C, mouse MEF2C cDNA) (mouse) (UniProt Q8CFN5)
Assay: cell-based or functional assay

Chain of MEF2C (pcDNAMEF2C, mouse MEF2C cDNA) (mouse) (Q8CFN5 whole entry): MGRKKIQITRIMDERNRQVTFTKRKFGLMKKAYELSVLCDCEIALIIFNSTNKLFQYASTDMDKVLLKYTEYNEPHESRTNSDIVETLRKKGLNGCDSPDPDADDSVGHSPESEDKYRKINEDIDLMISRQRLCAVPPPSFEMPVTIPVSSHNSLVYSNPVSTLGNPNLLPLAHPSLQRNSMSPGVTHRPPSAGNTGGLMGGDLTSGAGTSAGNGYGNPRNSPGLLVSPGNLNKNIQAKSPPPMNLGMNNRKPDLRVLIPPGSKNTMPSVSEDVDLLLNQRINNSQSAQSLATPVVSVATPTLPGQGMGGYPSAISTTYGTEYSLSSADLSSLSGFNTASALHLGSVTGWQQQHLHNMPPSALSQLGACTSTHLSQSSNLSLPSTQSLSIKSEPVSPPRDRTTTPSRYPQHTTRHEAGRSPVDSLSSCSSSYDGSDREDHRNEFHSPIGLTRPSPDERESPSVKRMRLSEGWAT

- MEF2C-mediated transcriptional activation of the hTnIslow USE (luciferase reporter, co-transfected C2C12 cells): 3 fold
Substance: hMusTRD1α1944aa (pcDNA3.1hMusTRD1α1944aamyc/his) (from UniProt Q9UHL9 1-959)
